From US20140154245A1 (L AND K BIOMED, published 2014) come the findings set out here.

In general, EC50 refers to the concentration at which the effect is half-maximal. Low readings indicate greater potency, high ones weaker potency.

Assay [1] concerns the target T1, human EMAPII (endothelial monocyte activating polypeptide II) antigen (human, UniProt Q12904 1-312, limits assumed).
T1 construct: also called EMAPII antigen; p43
T1 sequence: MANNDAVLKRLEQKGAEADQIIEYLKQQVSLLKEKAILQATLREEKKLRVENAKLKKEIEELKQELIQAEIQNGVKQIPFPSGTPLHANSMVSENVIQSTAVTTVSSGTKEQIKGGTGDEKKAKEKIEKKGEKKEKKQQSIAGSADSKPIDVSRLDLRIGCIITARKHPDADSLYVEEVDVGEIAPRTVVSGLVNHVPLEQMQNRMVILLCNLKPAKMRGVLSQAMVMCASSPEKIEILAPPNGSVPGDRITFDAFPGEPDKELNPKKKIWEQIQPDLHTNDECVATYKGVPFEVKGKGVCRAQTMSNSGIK
Kind of assay: ELISA, EMAPII antigen coated on the plate, antibody titrated. The procedure:
(§1) Wells of a 96 well plate were coated with 100 μl of different concentrations of EMAPII antigen (10 μg/ml, 5 μg/ml, 2.5 μg/ml, 1 μg/ml, 0.5 μg/ml, 0.2 μg/ml) and were incubated at 37° C. for 2 hours. The coated antigens were blocked using BSA and washed with washing buffer. Dilutions of the parental murine anti-EMAPII antibody (starting at 1 μg/ml, two-fold serial dilution) were added to the antigens and incubated for 2 hours. The mixture was washed three times and anti-IgG-HRP antibody was added to the mixture and incubated for 1 hour. The mixture was washed with washing buffer three times. The substrate was added to the mixture and maintained for 30 minutes. After developing, stop solution was added and detected absorbance at the wavelength of 450 nm (FIG. 12). Bound antibody was detected with anti-mouse IgG-HRP conjugate. A concentration of 2.5 μg/ml antigen was selected for testing the chimeric clones.
(§2) The ability of mouse/human chimeric antibody BAP015_{—}1 to bind to the EMAPII antigen was determined by using the ELISA protocol provided by StemScience and the optimized conditions determined as described above. Bound chimeric antibody was detected with anti-human-IgG HRP conjugate (FIG. 13). All 3 clones tested bind to EMAPII. The binding curves of all 3 clones are very similar to each other and to the murine antibody.

The target in assay [2] is T1, human EMAPII (endothelial monocyte …). Kind of assay: ELISA, EMAPII antigen coated on the plate, antibody titrated (3 clones). How it is done:
as §1, §2
On the technique in general: In an ELISA, binding on a coated surface is turned into a signal by an enzyme label.

B1: mouse anti-EMAPII monoclonal antibody (antibody, V domains shown)
VH: QVQLQQSGAELARPGASVKMSCKASGYTFTSYTMHWVKQRPGQGLEWIGYINPSSGFTNYNQKFKDKATLTADKSSSTAYMQLSSLTSEDSAVYYCASRFAYWGQG
VL: DIVMTQSHKFMSTSVGDRVSITCKASQDVSTAVAWYQQKPGQSPKLLIFSASYRYTGVPDRFTGSGSGTDFTFTISSVQAEDLAVYYCQQHYSTPYTFGQG
notes: Mouse IgG1 with kappa light chain, from a hybridoma; also called murine EMAPII mAb; parental murine anti-EMAPII antibody
Regarding B1, in assay [1], the EC50 was determined as 0.0209 µg/mL.

B2: mouse/human chimeric antibody BAP015-1 (antibody, V domains shown)
VH: B1 VH
VL: B1 VL
notes: VL is fused to a human kappa constant region and VH to a human IgG1 constant region (full-length IgG1, from CHO-S supernatant); Three plasmid clones of the same construct were tested; they are treated as one molecule; also called chimeric anti-EMAPII antibody; chimeric clone BAP015-1
The molecule B2 came in with a 50% effective concentration (EC50) in assay [2] of 0.0215 to 0.0302 µg/mL.
